Earlier results as cited in US6319955A, “Use of MEK1 inhibitors as protective agents against damage due to ischemia” (priority 2000, dated 2001).

Conditions: compared with native tPA

B1: C84S tPA (protein, UniProt P00750 36-562, looked up, variant C84S)
Tissue-type plasminogen …: SYQVICRDEKTQMIYQQHQSWLRPVLRSNRVEYCWCNSGRAQCHSVPVKSCSEPRCFNGGTCQQALYFSDFVCQCPEGFAGKCSEIDTRATCYEDQGISYRGTWSTAESGAECTNWNSSALAQKPYSGRRPDAIRLGLGNHNYCRNPDRDSKPWCYVFKAGKYSSEFCSTPACSEGNSDCYFGNGSAYRGTHSLTESGASCLPWNSMILIGKVYTAQNPSAQALGLGKHNYCRNPDGDAKPWCHVLKNRRLTWEYCDVPSCSTCGLRQYSQPQFRIKGGLFADIASHPWQAAIFAKHRRSPGERFLCGGILISSCWILSAAHCFQERFPPHHLTVILGRTYRVVPGEEEQKFEVEKYIVHKEFDDDTYDNDIALLQLKSDSSRCAQESSVVRTVCLPPADLQLPDWTECELSGYGKHEALSPFYSERLKEAHVRLYPSSRCTSQHLLNRTVTDNMLCAGDTRSGGPQANLHDACQGDSGGPLVCLNDGRMTLVGIISWGLGCGQKDVPGVYTKVTNYLDWIRDNMRP
For B1, the “in vivo half life, in words” value is given as “longer in vivo half life than native tPA”.
